The values below come from the Human Domainome abundance scans (Beltran et al. 2025).

B1: MEF2-activating motif and SAP domain-containing transcriptional regulator, residues 170 to 204; numbered along this chain, Q6ZN01 (parent)
chain: LKLEELTVSELRQQLRLRGLPVSGTKSMLLERMRG

± gives the uncertainty stated by the source.

The variants in the series derive from B1. The experiment in a line: abundance fitness (aPCA) (normalised: wild type 0, dead -1); higher = more abundant; growth selection in yeast, the domain comes from the species named. The note with it: Homo sapiens.
Turning to LKLEELTVSELRQQLRLRGLPVSGTKSMLPERMRG [L30P], the abundance fitness was -0.507 ± 0.066.
In the case of LKLEELTVSELRQQLRLRGLPVSGTKSMLYERMRG [L30Y], the abundance fitness was -0.915 ± 0.2.
Consider LKLEELTVSELRQQLRLRGLPVSGTKSMLDERMRG [L30D], for which the abundance fitness was -0.376 ± 0.13.
For LKLEELTVSELRQQLRLRGLPVSGTKSMLEERMRG [L30E], the abundance fitness is -0.251 ± 0.091.
Take LKLEELTVSELRQQLRLRGLPVSGTKSMLKERMRG [L30K]: the abundance fitness is -0.23 ± 0.11.
For LKLEELTVSELRQQLRLRGLPVSGTKSMLVERMRG [L30V], the abundance fitness is -0.099 ± 0.07.
For LKLEELTVSELRQQLRLRGLPVSGTKSMLTERMRG [L30T] the value was -0.257 ± 0.068; for LKLEELTVSELRQQLRLRGLPVSGTKSMLAERMRG [L30A], -0.356 ± 0.069; for LKLEELTVSELRQQLRLRGLPVSGTKSMLCERMRG [L30C], -0.197 ± 0.17.
Consider LKLEELTVSELRQQLRLRGLPVSGTKSMLSERMRG [L30S], for which the abundance fitness is -0.601 ± 0.081.
For LKLEELTVSELRQQLRLRGLPVSGTKSMLQERMRG [L30Q], the abundance fitness came to 0.004 ± 0.084.
LKLEELTVSELRQQLRLRGLPVSGTKSMLMERMRG [L30M]: the abundance fitness is -0.179 ± 0.097.
Then LKLEELTVSELRQQLRLRGLPVSGTKSMLIERMRG [L30I], with 0.394 ± 0.25; and LKLEELTVSELRQQLRLRGLPVSGTKSMLWERMRG [L30W], with -0.456 ± 0.17.
For the variant LKLEELTVSELRQQLRLRGLPVSGTKSMVLERMRG [L29V], the abundance fitness was -0.842 ± 0.074.
As to LKLEELTVSELRQQLRLRGLPVSGTKSMKLERMRG [L29K], the abundance fitness is -0.31 ± 0.17.
For the variant LKLEELTVSELRQQLRLRGLPVSGTKSMGLERMRG [L29G], the abundance fitness is -0.455 ± 0.053.
Turning to LKLEELTVSELRQQLRLRGLPVSGTKSMELERMRG [L29E], the abundance fitness is -0.22 ± 0.14.
For LKLEELTVSELRQQLRLRGLPVSGTKSMSLERMRG [L29S], the abundance fitness was -0.545 ± 0.061.
Then LKLEELTVSELRQQLRLRGLPVSGTKSMDLERMRG [L29D], with -0.51 ± 0.072.
Consider LKLEELTVSELRQQLRLRGLPVSGTKSMYLERMRG [L29Y], for which the abundance fitness was -0.469 ± 0.19.
Then LKLEELTVSELRQQLRLRGLPVSGTKSMNLERMRG [L29N], with -0.683 ± 0.3; and LKLEELTVSELRQQLRLRGLPVSGTKSMQLERMRG [L29Q], with -0.486 ± 0.085.
LKLEELTVSELRQQLRLRGLPVSGTKSMPLERMRG [L29P]: the abundance fitness is -0.909 ± 0.22.
Consider LKLEELTVSELRQQLRLRGLPVSGTKSMMLERMRG [L29M], for which the abundance fitness was -0.338 ± 0.21.
As for LKLEELTVSELRQQLRLRGLPVSGTKSMWLERMRG [L29W], the abundance fitness is -0.594 ± 0.11.
Then LKLEELTVSELRQQLRLRGLPVSGTKSMFLERMRG [L29F], with -0.589 ± 0.14; and LKLEELTVSELRQQLRLRGLPVSGTKSMILERMRG [L29I], with -0.749 ± 0.19; and LKLEELTVSELRQQLRLRGLPVSGTKSMRLERMRG [L29R], with -0.616 ± 0.072.
LKLEELTVSELRQQLRLRGLPVSGTKSMTLERMRG [L29T]: the abundance fitness is -0.297 ± 0.08.
Regarding LKLEELTVSELRQQLRLRGLPVSVTKSMLLERMRG [G24V], the abundance fitness was -0.828 ± 0.069.
As for LKLEELTVSELRQQLRLRGLPVSWTKSMLLERMRG [G24W], the abundance fitness was -0.41 ± 0.21.
Then LKLEELTVSELRQQLRLRGLPVSGTRSMLLERMRG [K26R], with 0.048 ± 0.069.
Then LKLEELTVSELRQQLRLRGLPVSGTLSMLLERMRG [K26L], with -0.159 ± 0.1; and LKLEELTVSELRQQLRLRGLPVSGTDSMLLERMRG [K26D], with -0.467 ± 0.32; and LKLEELTVSELRQQLRLRGLPVSGTTSMLLERMRG [K26T], with -0.42 ± 0.097.
As for LKLEELTVSELRQQLRLRGLPVSGTSSMLLERMRG [K26S], the abundance fitness was -0.697 ± 0.1.
Take LKLEELTVSELRQQLRLRGLPVSGTCSMLLERMRG [K26C]: the abundance fitness is -0.761 ± 0.15.
Take LKLEELTVSELRQQLRLRGLPVSGTASMLLERMRG [K26A]: the abundance fitness was -0.057 ± 0.064.
As for LKLEELTVSELRQQLRLRGLPVSGTGSMLLERMRG [K26G], the abundance fitness is -0.78 ± 0.1.
As for LKLEELTVSELRQQLRLRGLPVSGTMSMLLERMRG [K26M], the abundance fitness was -0.725 ± 0.33.
In the case of LKLEELTVSELRQQLRLRGLPVSGTESMLLERMRG [K26E], the abundance fitness was -0.379 ± 0.17.
Then LKLEELTVSELRQQLRLRGLPVSGTQSMLLERMRG [K26Q], with -0.221 ± 0.069.
Regarding LKLEELTVSELRQQLRLRGLPVSGTWSMLLERMRG [K26W], the abundance fitness is -0.361 ± 0.15.
On to LKLEELTVSELRQQLRLRGLPVSGTKSMLLNRMRG [E31N], for which the abundance fitness was -0.238 ± 0.11.
For LKLEELTVSELRQQLRLRGLPVSGTKSMLLMRMRG [E31M] the value was -0.343 ± 0.13; for LKLEELTVSELRQQLRLRGLPVSGTKSMLLLRMRG [E31L], -0.503 ± 0.072.
Then LKLEELTVSELRQQLRLRGLPVSGTKSMLLCRMRG [E31C], with -0.745 ± 0.46; and LKLEELTVSELRQQLRLRGLPVSGTKSMLLYRMRG [E31Y], with -0.124 ± 0.18.
Take LKLEELTVSELRQQLRLRGLPVSGTKSMLLWRMRG [E31W]: the abundance fitness is -0.755 ± 0.18.
On to LKLEELTVSELRQQLRLRGLPVSGTKSMLLTRMRG [E31T], for which the abundance fitness is -0.348 ± 0.096.
For LKLEELTVSELRQQLRLRGLPVSGTKSMLLGRMRG [E31G] the value was -0.279 ± 0.061; for LKLEELTVSELRQQLRLRGLPVSGTKSMLLVRMRG [E31V], -1.16 ± 0.23; for LKLEELTVSELRQQLRLRGLPVSGTKSMLLQRMRG [E31Q], -0.227 ± 0.06.
Then LKLEELTVSELRQQLRLRGLPVSGTKSMLLSRMRG [E31S], with -0.27 ± 0.089; and LKLEELTVSELRQQLRLRGLPVSGTKSMLLPRMRG [E31P], with -0.992 ± 0.42; and LKLEELTVSELRQQLRLRGLPVSGPKSMLLERMRG [T25P], with -0.29 ± 0.068.
As to LKLEELTVSELRQQLRLRGLPVSGDKSMLLERMRG [T25D], the abundance fitness is 0.215 ± 0.096.
For LKLEELTVSELRQQLRLRGLPVSGRKSMLLERMRG [T25R] the value was -0.497 ± 0.054; for LKLEELTVSELRQQLRLRGLPVSGKKSMLLERMRG [T25K], -0.204 ± 0.1; for LKLEELTVSELRQQLRLRGLPVSGGKSMLLERMRG [T25G], -0.27 ± 0.059.
Then LKLEELTVSELRQQLRLRGLPVSGLKSMLLERMRG [T25L], with -0.581 ± 0.075; and LKLEELTVSELRQQLRLRGLPVSGQKSMLLERMRG [T25Q], with -0.441 ± 0.15.
For LKLEELTVSELRQQLRLRGLPVSGCKSMLLERMRG [T25C] the value was -0.43 ± 0.13.
With LKLEELTVSELRQQLRLRGLPVSGFKSMLLERMRG [T25F], the abundance fitness is -0.608 ± 0.34.
LKLEELTVSELRQQLRLRGLPVSGSKSMLLERMRG [T25S]: the abundance fitness was determined as 0.004 ± 0.069.
For LKLEELTVSELRQQLRLRGLPVSGMKSMLLERMRG [T25M] the value was -0.517 ± 0.2.
For LKLEELTVSELRQQLRLRGLPVSGVKSMLLERMRG [T25V] the value was -0.435 ± 0.073; for LKLEELTVSELRQQLRLRGLPVSGEKSMLLERMRG [T25E], -0.051 ± 0.06.
In the case of LKLEELTVSELRQQLRLRGLPVSGHKSMLLERMRG [T25H], the abundance fitness was -0.295 ± 0.18.
